In paper PMC2738593 (Nature methods, 2009):
Like-named read-outs stand apart in the source and are kept apart here.

Experiments:
[1] = molecular target: the molecule itself; experiment: crystal structure
[2] = molecular target: the molecule itself; experiment: crystal structure; remark: listed apart in the source

B1: cysteine-less HCN2I fragment (carboxyl-terminal region of mouse HCN2, C-linker and CNBD, residues 443-640) (domain or fragment, UniProt O88703 443-640, looked up)
chain: DSSRRQYQEKYKQVEQYMSFHKLPADFRQKIHDYYEHRYQGKMFDEDSILGELNGPLREEIVNFNNRKLVASMPLFANADPNFVTAMLTKLKFEVFQPGDYIIREGTIGKKMYFIQHGVVSVLTKGNKEMKLSDGSYFGEISLLTRGRRTASVRADTYSRLYSLSVDNFNEVLEEYPMMRRAFETVAIDRLDRIGKKN
Question: How did the “stoichiometry N” value [1] turn out when B1 was run?
Answer: Its value is 4.

B2: wild-type mouse HCN2I construct (carboxyl-terminal fragment of HCN2, C-linker and CNBD, residues 443-640) (domain or fragment, UniProt O88703 443-640, looked up)
chain: DSSRRQYQEKYKQVEQYMSFHKLPADFRQKIHDYYEHRYQGKMFDEDSILGELNGPLREEIVNFNCRKLVASMPLFANADPNFVTAMLTKLKFEVFQPGDYIIREGTIGKKMYFIQHGVVSVLTKGNKEMKLSDGSYFGEICLLTRGRRTASVRADTYCRLYSLSVDNFNEVLEEYPMMRRAFETVAIDRLDRIGKKN
Question: For B2, which “stoichiometry N” value [2] is on record?
Answer: The value was 4.
